Reference: patent US12139520B2 (priority 2020, dated 2024)
Numbered stars: 1 amine (or outer) side, 2 acyl side, 3 side chain; on linkers, the order of the positions; unused ones are H or OH. Bridge positions count the residues as written; N and C are the ends. Square brackets hold non-standard residues; d marks the D form. Side chains are listed from the residue outwards. Ends that are not written are not given here. Peptide text beside a SMILES is read from it. * marks the point of attachment. C20 diacid = O=C(O)CCCCCCCCCCCCCCCCCCC(=O)*; γGlu = O=C(O)[C@H](CCC(=O)[*:2])N[*:1]; Hyp = O=C(O)[C@@H]1C[C@@H](O)CN1; AEEA = NCCOCCOCC(=O)O

T1: hAMY3R (human, UniProt P30988)
T1 sequence 1: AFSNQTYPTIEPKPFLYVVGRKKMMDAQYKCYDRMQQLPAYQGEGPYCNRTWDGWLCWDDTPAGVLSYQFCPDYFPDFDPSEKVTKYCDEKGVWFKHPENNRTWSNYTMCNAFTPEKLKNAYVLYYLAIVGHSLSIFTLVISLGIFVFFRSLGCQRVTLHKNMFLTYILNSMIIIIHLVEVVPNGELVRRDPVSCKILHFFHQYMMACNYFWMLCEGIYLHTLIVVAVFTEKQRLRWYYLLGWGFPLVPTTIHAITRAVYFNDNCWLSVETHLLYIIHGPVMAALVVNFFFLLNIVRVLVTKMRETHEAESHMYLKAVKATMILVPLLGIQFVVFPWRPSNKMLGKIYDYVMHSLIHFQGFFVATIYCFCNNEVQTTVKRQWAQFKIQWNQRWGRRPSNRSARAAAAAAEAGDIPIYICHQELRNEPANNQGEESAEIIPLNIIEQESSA
T1 sequence 2: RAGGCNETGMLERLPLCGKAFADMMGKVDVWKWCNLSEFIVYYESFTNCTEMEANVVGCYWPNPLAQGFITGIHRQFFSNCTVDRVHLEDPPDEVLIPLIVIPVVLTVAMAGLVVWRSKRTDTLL

T2: hAMY3 receptor (Homo sapiens, UniProt O60896+P30988)
T2 sequence (P30988 25-474): T1 sequence 1
T2 sequence (O60896 24-148 partner): T1 sequence 2


These molecules were tested against T1, hAMY3R (assay: cell-based or functional assay). Conditions: not given.

Molecule	hAMY3R EC50 (cAMP) [nM]
KCNTATCTVQRLAHQIYAFTDKDKDNVAPPTNVGSNG[Hyp]-NH2 (disulfide 2-7 (inferred); ends not checked) [SEQ ID NO: 42]	0.01
GCRTGTCTVQRLAHQIYQFTDKDKDNVAPRTNVGPQG[Hyp]-NH2 (disulfide 2-7 (inferred); ends not checked) [SEQ ID NO: 49]	0.011
KCNTATCTVQRLAEQIYQFTDKDKDNVAPPYNEGSNG[Hyp]-NH2 (disulfide 2-7 (inferred); ends not checked) [SEQ ID NO: 44]	0.01
{C20 diacid-γGlu}-GCRFGTCTVQRLANFLYQFTDKDKDNVAPRTNVGPQGY-NH2 (disulfide 2-7 (inferred); ends not checked) [SEQ ID NO: 386]	0.039
{C20 diacid-γGlu}-KCNTATCTVQRLAHQIYQYTDKDKDNVAPPTNVGSNG[Hyp]-NH2 (disulfide 2-7 (inferred); ends not checked) [SEQ ID NO: 48]	0.011
GCRFGTCTVQRLAHQIYQFTDKDKDNVAPRTKVGPQG[Hyp]-NH2 (disulfide 2-7 (inferred); ends not checked) [SEQ ID NO: 45]	0.011
{C20 diacid-γGlu}-KCNTATCTVQRLAYQIYQFTDKDKDNVAPPTNVGSNG[Hyp]-NH2 (disulfide 2-7 (inferred); ends not checked) [SEQ ID NO: 47]	0.011
GCRFGTCTVQRLAHQIYQFTDKDKDNVAPRTNIGPQG[Hyp]-NH2 (disulfide 2-7 (inferred); ends not checked) [SEQ ID NO: 46]	0.011
KCNTATCTVQRLAEQIYQFTDKDKK([AEEA-AEEA-γGlu-C20 diacid])NVAPPTNVGSNG[Hyp]-NH2 (disulfide 2-7 (inferred); not fully specified (N-terminus); ends not checked) [SEQ ID NO: 40]	0.01
KCNTATCTVQRLAHQIYQFTDKAKDNVAPPTNVGSNG[Hyp]-NH2 (disulfide 2-7 (inferred); ends not checked) [SEQ ID NO: 43]	0.01
KCNTATCTVQRLAEQIYQFTDKDKDK([AEEA-AEEA-γGlu-C20 diacid])VAPPTNVGSNG[Hyp]-NH2 (disulfide 2-7 (inferred); not fully specified (N-terminus); ends not checked) [SEQ ID NO: 41]	0.01

Further lines, results first:

hAMY3R EC50 (cAMP) [nM]	Molecule
0.113	{C20 diacid-γGlu}-GCRFGTCTVQRLAHFLYQFTDKDKDNVAPRTKVGPQGY-NH2 (disulfide 2-7 (inferred); ends not checked) [SEQ ID NO: 392]
0.045	{C20 diacid-γGlu}-KCNFATCATQRLANFLVQFTDKDKDNVAPRSKIGPQGY-NH2 (disulfide 2-7 (inferred); ends not checked) [SEQ ID NO: 389]
0.048	{C20 diacid-γGlu}-GCRFGTCTVQRLAHFLYQFTDKDKDNVAPRTKIGPQGY-NH2 (disulfide 2-7 (inferred); ends not checked) [SEQ ID NO: 390]
0.043	{C20 diacid-γGlu}-GCRFGTCTVQRLAHFLYQFTDKDKDNVAPRTNIGPQGY-NH2 (disulfide 2-7 (inferred); ends not checked) [SEQ ID NO: 388]
0.04	GCRFGTCTVQRLAHQIYQFTDKDKDNVAPRSKIGPQGY [SEQ ID NO: 387]
0.068	GCRFGTCTVQRLAHQIYQFTDKDKDNVAPRTKIGPQGY [SEQ ID NO: 391]

The molecules below were run against hAM1R (human, UniProt Q16602) (assay: cell-based or functional assay). Conditions: not given.

Molecule	hAM1R EC50 (cAMP) [nM]
KCNTATCTVQRLAHQIYAFTDKDKDNVAPPTNVGSNG[Hyp]-NH2 (disulfide 2-7 (inferred); ends not checked) [SEQ ID NO: 42]	> 5000
GCRTGTCTVQRLAHQIYQFTDKDKDNVAPRTNVGPQG[Hyp]-NH2 (disulfide 2-7 (inferred); ends not checked) [SEQ ID NO: 49]	2980
KCNTATCTVQRLAEQIYQFTDKDKDNVAPPYNEGSNG[Hyp]-NH2 (disulfide 2-7 (inferred); ends not checked) [SEQ ID NO: 44]	> 5000
{C20 diacid-γGlu}-GCRFGTCTVQRLANFLYQFTDKDKDNVAPRTNVGPQGY-NH2 (disulfide 2-7 (inferred); ends not checked) [SEQ ID NO: 386]	7.35
{C20 diacid-γGlu}-KCNTATCTVQRLAHQIYQYTDKDKDNVAPPTNVGSNG[Hyp]-NH2 (disulfide 2-7 (inferred); ends not checked) [SEQ ID NO: 48]	761
GCRFGTCTVQRLAHQIYQFTDKDKDNVAPRTKVGPQG[Hyp]-NH2 (disulfide 2-7 (inferred); ends not checked) [SEQ ID NO: 45]	50.5
{C20 diacid-γGlu}-KCNTATCTVQRLAYQIYQFTDKDKDNVAPPTNVGSNG[Hyp]-NH2 (disulfide 2-7 (inferred); ends not checked) [SEQ ID NO: 47]	500
GCRFGTCTVQRLAHQIYQFTDKDKDNVAPRTNIGPQG[Hyp]-NH2 (disulfide 2-7 (inferred); ends not checked) [SEQ ID NO: 46]	78.5
KCNTATCTVQRLAEQIYQFTDKDKK([AEEA-AEEA-γGlu-C20 diacid])NVAPPTNVGSNG[Hyp]-NH2 (disulfide 2-7 (inferred); not fully specified (N-terminus); ends not checked) [SEQ ID NO: 40]	> 5000
KCNTATCTVQRLAHQIYQFTDKAKDNVAPPTNVGSNG[Hyp]-NH2 (disulfide 2-7 (inferred); ends not checked) [SEQ ID NO: 43]	> 5000
KCNTATCTVQRLAEQIYQFTDKDKDK([AEEA-AEEA-γGlu-C20 diacid])VAPPTNVGSNG[Hyp]-NH2 (disulfide 2-7 (inferred); not fully specified (N-terminus); ends not checked) [SEQ ID NO: 41]	> 5000

Continued, values first:

hAM1R EC50 (cAMP) [nM]	Molecule
5.03	{C20 diacid-γGlu}-GCRFGTCTVQRLAHFLYQFTDKDKDNVAPRTKVGPQGY-NH2 (disulfide 2-7 (inferred); ends not checked) [SEQ ID NO: 392]
1.04	{C20 diacid-γGlu}-KCNFATCATQRLANFLVQFTDKDKDNVAPRSKIGPQGY-NH2 (disulfide 2-7 (inferred); ends not checked) [SEQ ID NO: 389]
0.889	{C20 diacid-γGlu}-GCRFGTCTVQRLAHFLYQFTDKDKDNVAPRTKIGPQGY-NH2 (disulfide 2-7 (inferred); ends not checked) [SEQ ID NO: 390]
4.01	{C20 diacid-γGlu}-GCRFGTCTVQRLAHFLYQFTDKDKDNVAPRTNIGPQGY-NH2 (disulfide 2-7 (inferred); ends not checked) [SEQ ID NO: 388]
0.992	GCRFGTCTVQRLAHQIYQFTDKDKDNVAPRSKIGPQGY [SEQ ID NO: 387]
0.665	GCRFGTCTVQRLAHQIYQFTDKDKDNVAPRTKIGPQGY [SEQ ID NO: 391]

Each molecule was assayed against T2, hAMY3 receptor (assay: cAMP assay for in vitro receptor activation, hAMY3-R). Conditions: cAMP assay, hAMY3 receptor; read-out: hAMY3R EC50.
Format: cell-based
Protocol: General Protocols for cAMP Assays for Measuring In Vitro Receptor Activation
Cells stably overexpressing the hAMY3 receptor were obtained from Ogeda (now Astellas Pharma), sub-cloned and a monoclonal cell-line with an appropriate assay-window was expanded, aliquoted and frozen.
An aliquot was thawed and plated in DPBS with 0.05% casein and 0.5 mM IBMX as 2000 cells/well in a 384-well format. The cells were then immediately stimulated for 30 min at room temperature with graded doses of test compound using human amylin (Bachem, cat no. H-7905) as a positive control. cAMP accumulation was measured using a Cisbio assay for Gs coupled receptors (cat. no. 62AM4PEC), where the assay reagents were added as per the manufacturer's instructions and time-resolved fluorescence energy transfer recorded after one hour.

Molecule	EC50 [nM]
CC[C@H](C)[C@H](NC(=O)[C@H](CCC(N)=O)NC(=O)[C@H](Cc1c[nH]cn1)NC(=O)[C@H](C)NC(=O)[C@H](CC(C)C)NC(=O)[C@H](CCCNC(=N)N)NC(=O)[C@H](CCC(N)=O)NC(=O)[C@@H](NC(=O)[C@@H](NC(=O)[C@@H]1CSSC[C@H](NC(=O)[C@@H](N)CCCCN)C(=O)N[C@@H](CC(N)=O)C(=O)N[C@@H](Cc2ccccc2)C(=O)N[C@@H](C)C(=O)N[C@@H]([C@@H](C)O)C(=O)N1)[C@@H](C)O)C(C)C)C(=O)N[C@@H](Cc1ccc(O)cc1)C(=O)N[C@@H](CCC(N)=O)C(=O)N[C@@H](Cc1ccccc1)C(=O)N[C@H](C(=O)N[C@@H](CC(=O)O)C(=O)N[C@@H](CCCCN)C(=O)N[C@@H](CC(=O)O)C(=O)N[C@@H](CCCCN)C(=O)N[C@@H](CC(=O)O)C(=O)N[C@@H](CC(N)=O)C(=O)N[C@H](C(=O)N[C@@H](C)C(=O)N1CCC[C@H]1C(=O)N[C@@H](CCCNC(=N)N)C(=O)N[C@H](C(=O)N[C@@H](CCCCN)C(=O)N[C@H](C(=O)NCC(=O)N[C@@H](CO)C(=O)N[C@@H](CC(N)=O)C(=O)NCC(=O)N1C[C@H](O)C[C@H]1C(N)=O)C(C)C)[C@@H](C)O)C(C)C)[C@@H](C)O [compound 3] (H-KCNFATCTVQRLAHQIYQFTDKDKDNVAPRTKVGSNG[Hyp]-NH2; disulfide 2-7)	0.006
CC[C@H](C)[C@H](NC(=O)[C@H](CCC(N)=O)NC(=O)[C@H](Cc1c[nH]cn1)NC(=O)[C@H](C)NC(=O)[C@H](CC(C)C)NC(=O)[C@H](CCCNC(=N)N)NC(=O)[C@H](CCC(N)=O)NC(=O)[C@@H](NC(=O)[C@@H](NC(=O)[C@@H]1CSSC[C@H](NC(=O)[C@@H](N)CCCCN)C(=O)N[C@@H](CC(N)=O)C(=O)N[C@@H](Cc2ccccc2)C(=O)N[C@@H](C)C(=O)N[C@@H]([C@@H](C)O)C(=O)N1)[C@@H](C)O)C(C)C)C(=O)N[C@@H](Cc1ccc(O)cc1)C(=O)N[C@@H](CCC(N)=O)C(=O)N[C@@H](Cc1ccccc1)C(=O)N[C@H](C(=O)N[C@@H](CC(=O)O)C(=O)N[C@@H](CCCCN)C(=O)N[C@@H](CC(=O)O)C(=O)N[C@@H](CCCCN)C(=O)N[C@@H](CC(=O)O)C(=O)N[C@@H](CC(N)=O)C(=O)N[C@H](C(=O)N[C@@H](C)C(=O)N1CCC[C@H]1C(=O)N1CCC[C@H]1C(=O)N[C@H](C(=O)N[C@@H](CCC(=O)O)C(=O)N[C@H](C(=O)NCC(=O)N[C@@H](CO)C(=O)N[C@@H](CC(N)=O)C(=O)NCC(=O)N1C[C@H](O)C[C@H]1C(N)=O)C(C)C)[C@@H](C)O)C(C)C)[C@@H](C)O [compound 10] (H-KCNFATCTVQRLAHQIYQFTDKDKDNVAPPTEVGSNG[Hyp]-NH2; disulfide 2-7; N-terminus assumed)	0.007
